Results taken from article PMC11838001.

Target: E-cadherin (human (endogenous in NHEK))
Assay: FRET or BRET; FLIM-FRET in fixed, permeabilized NHEK cells, untreated or treated with 6 μM CHIR99021 for 48 hours; β-catenin labelled by antibodies as donor (Alexa Fluor 488), E-cadherin as acceptor (Alexa Fluor 555); FRET efficiency from regions at cell-cell junctions, dual exponential fit

Chain of E-cadherin (human (endogenous in NHEK)) (P12830 23-882): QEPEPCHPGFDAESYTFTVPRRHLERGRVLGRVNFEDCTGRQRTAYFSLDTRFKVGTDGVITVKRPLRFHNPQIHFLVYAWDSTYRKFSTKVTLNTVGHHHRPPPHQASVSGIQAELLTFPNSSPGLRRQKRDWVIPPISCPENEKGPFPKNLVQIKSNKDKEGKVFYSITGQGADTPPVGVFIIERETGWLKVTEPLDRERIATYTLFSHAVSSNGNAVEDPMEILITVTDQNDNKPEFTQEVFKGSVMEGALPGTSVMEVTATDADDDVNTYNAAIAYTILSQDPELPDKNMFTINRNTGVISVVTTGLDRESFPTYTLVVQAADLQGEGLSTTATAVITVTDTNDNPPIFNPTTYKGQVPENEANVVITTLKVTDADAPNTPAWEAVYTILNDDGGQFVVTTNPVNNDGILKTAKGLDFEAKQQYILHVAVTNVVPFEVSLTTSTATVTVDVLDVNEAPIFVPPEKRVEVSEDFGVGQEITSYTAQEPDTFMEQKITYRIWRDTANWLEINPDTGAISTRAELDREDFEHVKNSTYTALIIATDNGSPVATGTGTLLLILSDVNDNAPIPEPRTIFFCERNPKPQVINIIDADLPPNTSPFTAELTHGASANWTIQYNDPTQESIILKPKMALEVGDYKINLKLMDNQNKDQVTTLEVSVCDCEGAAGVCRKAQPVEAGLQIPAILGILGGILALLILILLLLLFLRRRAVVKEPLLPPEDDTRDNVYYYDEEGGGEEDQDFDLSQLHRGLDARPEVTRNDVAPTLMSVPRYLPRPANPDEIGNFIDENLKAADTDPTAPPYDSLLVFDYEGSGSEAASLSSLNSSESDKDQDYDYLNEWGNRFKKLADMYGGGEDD
Chain of β-catenin (P35222 whole entry): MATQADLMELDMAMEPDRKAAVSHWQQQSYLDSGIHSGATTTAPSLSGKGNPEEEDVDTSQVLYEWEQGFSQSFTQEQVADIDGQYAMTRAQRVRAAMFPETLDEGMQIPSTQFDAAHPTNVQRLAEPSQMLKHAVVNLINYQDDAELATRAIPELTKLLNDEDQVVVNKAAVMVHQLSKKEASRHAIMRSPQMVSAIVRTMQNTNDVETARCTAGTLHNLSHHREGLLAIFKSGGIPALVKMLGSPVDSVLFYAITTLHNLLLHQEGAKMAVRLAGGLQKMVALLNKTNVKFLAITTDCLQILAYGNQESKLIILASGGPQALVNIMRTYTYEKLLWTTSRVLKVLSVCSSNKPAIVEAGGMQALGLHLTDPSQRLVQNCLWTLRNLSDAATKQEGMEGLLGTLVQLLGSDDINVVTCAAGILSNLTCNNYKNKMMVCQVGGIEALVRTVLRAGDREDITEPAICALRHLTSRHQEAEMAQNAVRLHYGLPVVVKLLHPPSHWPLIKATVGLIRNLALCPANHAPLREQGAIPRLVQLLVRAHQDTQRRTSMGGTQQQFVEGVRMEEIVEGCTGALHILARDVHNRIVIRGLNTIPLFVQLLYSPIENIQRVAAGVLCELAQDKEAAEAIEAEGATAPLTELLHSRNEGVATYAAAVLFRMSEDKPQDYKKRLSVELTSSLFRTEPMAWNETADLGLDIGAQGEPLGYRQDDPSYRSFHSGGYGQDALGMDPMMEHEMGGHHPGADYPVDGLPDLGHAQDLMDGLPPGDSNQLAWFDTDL

β-catenin (from UniProt P35222 1-781) (natural protein)
fold change of FRET efficiency, CHIR-treated against untreated cells: 3 fold
